Experimental data reported in patent US11759508B2, “Antigenic peptides for treatment of B-cell malignancy” (ENTEROME S.A., priority 2019, dated 2023).
“Also recorded” adds a separate entry of the source. One block for each substance: values may come before it.

Key:
HLA-A*0201 = molecular target: T1, HLA-A*0201 (Homo sapiens, UniProt P04439, D140Y/D185E/D98H/E176V/E277Q/G131W/G231S/I119V/I121R/I166T/I218V/L300P/L318F/N151K/N90K/P208A/P217A/Q86G/Q94H/R138H/R169H/T345S); assay: Affinity of the peptide to T2 cell line (HLA-A*0201 expression, FACS, relative to HIV pol 589-597); format: binding; conditions: for mean relative fluorescence intensity of T2 cells: normalized to HIV peptide = 100; for Concentration of peptide that induces 20% of HLA-A2 expression: T2 cells, peptide 100-0.1 μM, 16 h, 37° C., anti-HLA-A2 FACS
T1 construct: human tumoral cell T2 which expresses the HLA-A*0201 molecule; endogenous in cells; host or cells: T2 cells (human, TAP1/2 negative)
Excerpt: The experimental protocol is similar to the one that was validated for peptides presented by the HLA-A*0201 (Tourdot et al., A general strategy to enhance immunogenicity of low-affinity HLA-A2.1-associated peptides: implication in the identification of cryptic tumor epitopes. Eur J Immunol. 2000 December; 30(12):3411-21). Affinity measurement of the peptides is achieved with the human tumoral cell T2 which expresses the HLA-A*0201 molecule, but which is TAP ½ negative and incapable of presenting endogenous peptides.
(§1) T2 cells (5.104 cells per well) are incubated with decreasing concentrations of peptides from 100 μM to 0.1 μM (4 points: 100 μM, 10 μM, 1 μM, 0.1 μM) in serum-free medium (TexMacs) supplemented with […] of β2 Microglobulin at 37° C. for 16 hours. Cells are then washed two times and marked with the anti-HLA-A2 antibody coupled to PE (clone BB7.2, BD Pharmagen).
The analysis is achieved by FACS (Macsquant analyzer 10-Miltenyi).
For each peptide concentration, the geometric mean of the labelling associated with the peptide of interest is subtracted from background noise and reported as a percentage of the geometric mean of the […] labelling obtained for the reference peptide HIV pol 589-597 at a concentration of 100 μM. […] A2. Solubilisation of Peptides
as §1, with “32” for “β2”
For each peptide concentration, the geometric mean of the labelling associated with the peptide of interest is subtracted from background noise and reported as a percentage of the geometric mean of the […] labelling obtained for the reference peptide HIV pol 589-597 at a concentration of 100 μM.

[1] = test system: HLA-A2 HHD-DR3 humanized mice; assay: ELISPOT-IFNγ on splenocytes of vaccinated HLA-A2 HHD-DR3 transgenic mice; format: in vivo, mouse; conditions: for cross-reactivity of the T cells for the corresponding human peptides: summary statement for HHD DR3 and HHD DR1 mice; for immunogenicity (ELISPOT-IFNγ), FIGS. 11-13: HHD DR3 mice (printed as HHD DR1)
Excerpt: (§2) Briefly, HLA-A2 HHD-DR1 humanized mice (C57BL/6JB2mtm1UncIAb-/-Tg(HLA-DRA, HLA-DRB1*0101)#GjhTg(HLA-A/H2-D/B2M)1Bpe) or HHD-DR3 humanized mice (C57BL/6JB2mtm1UncIAb-/-Tg(HLA-DRA,HLA-DRB1*0301)#GjhTg(HLA-A/H2-D/B2M)1Bpe) were assigned randomly (based on mouse sex and age) to experimental groups, wherein each group was immunized with a specific vaccination peptide (vacc-pAg) combined to a common helper peptide (h-pAg UCP2; sequence: […]; SEQ ID NO: 475; for HHD DR1 mice or h-pAg DR3; sequence […]; SEQ ID n° 473; for HHD DR3 mice) (as outlined in Table 4 below).
(§3) The peptides were provided as follows: • vacc-pAg: CD22-B1, CD19-B1, CD19-B2, CD37-B1, TNFRSF13C-B1 and MS4A1-B4 all produced and provided at a 4 mg/ml (4 mM) concentration; • h-pAg: DR3 or UCP2 re-suspended in pure distilled water at a 10 mg/mL concentration
(§4) The peptide formulation to be injected (emulsion) was prepared freshly on each day of injection and for each group. A mix for 10 animals was prepared using 2 mL luer lock syringes (460670 IV, B BRAUN) and luer connectors (Cole-Parmer, 45502-22): 500 μL of peptide mixture in syringe 1 was emulsified with 500 μL of IFA contained in syringe 2, at high speed as fast as possible until forming a thick (white foam) emulsion. Each emulsion was prepared in excess to compensate for the dead volumes at injection.
(§5) The animals were immunized on day 0 (do) with a prime injection, and on d14 with a boost injection. Each mouse was injected s.c. at tail base with 100 μL of an oil-based emulsion that contained: • 60nMole of vacc-pAg; 105nMole of UCP2 helper peptide (for HHD-DR1 mice) or 65nMole of DR3 helper peptide (for HHD-DR3 mice) • 10 μL of PBS to reach a total volume of 50 μL (per mouse); • Incomplete Freund's Adjuvant (IFA) added at 1:1 (v:v) ratio (50 μL per mouse). A.2 Analysis
(§6) Seven days after the boost injection (i.e. on d21), the animals were euthanized and the spleen was harvested. Splenocytes were prepared by mechanical disruption of the organ followed by 70 μm-filtering and Ficoll density gradient purification.
(§7) The cell suspensions were further used in an ELISPOT-IFNγ assay (Table 5). The cells were cultured in 200 μL of complete T cell medium. Experimental conditions (duplicates) were as follow: 2×10^5 total cells per well when cultured in presence of various pAg (10 μM) or medium-only; and 2×10^4 total cells when cultured in presence of CD3/CD28-loaded bead particles (T cell Activation/Expansion kit, 130-093-627, Miltenyi) (bead-to-cell ratio of 1:1). The cultures were assessed for their capacity to secrete IFNγ (Diaclone Kit Murine IFNγ ELISpot, 862.031-005PC), following the manufacturer's instructions (˜16-18 h incubation time before performing the assay). The peptides used for restimulation are described in Table 5.
(§8) Spots were counted on a CTL ELISpot reader. Data plotting and statistical analysis were performed with the Prism-5 software (GraphPad Software Inc.).
(§9) The data were provided as a number of spots per 1·10^6 total T cells. The individual average values (obtained from the triplicates) were next used to plot the group average values. Statistical analysis for comparison (to the medium condition) were performed using unpaired non-parametric test (Mann Whitney) (**: p<0.01; *: p<0.05).

[2] = test system: HLA-A2 HHD-DR1 humanized mice; assay: ELISPOT-IFNγ on splenocytes of vaccinated HLA-A2 HHD-DR1 transgenic mice; format: in vivo, mouse; conditions: for cross-reactivity: T cell reaction after challenge with the human corresponding peptide: HHD-DR1 mice vaccinated with the bacterial peptide; for immunogenicity (T cell response in ELISPOT-IFNγ after vaccination): HHD-DR1 mice, prime d0 and boost d14, splenocytes d21
Excerpt: as §2, §3, §4, §5, §6, §7, §8, §9

[3] = test system: T2 cells loaded with bacterial peptide or human counterpart peptide; assay: Cytotoxic assay of peptide-specific CD8+ T cells against peptide-loaded T2 cells (flow cytometry); format: cell-based; conditions: for killing of T2 cells loaded with the bacteria peptide by peptide-specific human T cell clones: clones expanded in vitro, FIG. 18; for killing of T2 cells loaded with the human TNFR13C (BAFF-R) or MS4A1 (CD20) peptide by peptide-specific human T cell clones: when cross-reactivity is observed with the staining (FIG. 17)
Excerpt: CD8+ T cells expanded per above were used to perform cytotoxic assays in presence of different ratios of target and effector cells to assess their cytotoxic capacity, using flow cytometry readout. Target cells were T2 cell lines loaded with bacterial peptide or human counterpart peptide. Negative control was T2 cells unloaded and T2 cells loaded with irrelevant peptide. […] More importantly, CD22-B1, CD37B1, TNFRSF13C-B1 and MS4A1-B4-specific human T cells clones expanded in vitro were able to kill T2 cells loaded with the human TNFR13C (BAFF-R) or MS4A1 (CD20) peptide when cross-reactivity is observed with the staining (FIG. 17).

[4] = test system: CD8 T cells from PBMCs of HLA-A*02 healthy donors; assay: Detection of antigenic peptide-specific CD8 T cells with pMHC multimers after in vitro amplification; format: cell-based, human; conditions: one HLA-A2 healthy donor, after cell amplification (FIG. 17)
Excerpt: In vitro amplification method and specific pMHC multimers have been used for identification of CD22-B1, CD37-B1, TNFRSF13C-B1 and MS4A1-B4 specific T cells. pMHC multimers were generated for all the bacteria peptides and their respective human counterpart. PBMCs from several HLA-A*02 healthy donors (up to 19 donors) were collected, enriched after CD137 and CD8 selection and subjected to multiple rounds of in vitro amplification with EO2463 peptides loaded T2 cells to increase the number of specific T cell clones. Detection of OMP peptide specific CD8 T cells using cytometry analysis with the fluorescent multimer was performed on enriched CD8 T cell populations

Substance: TLAYLIFCL (listed as Homo sapiens) [CD19-H6, reference compound]
Concentration of peptide that induces 20% of HLA-A2 expression (HLA-A*0201): 4.98 µM

Substance: TLLFLTPML [CD19-B2]
cross-reactivity of the T cells for the corresponding human peptides [1]: shown
cross-reactivity: T cell reaction after challenge with the human corresponding peptide [2]: react strongly
immunogenicity (T cell response in ELISPOT-IFNγ after vaccination) [2]: significant T cell responses; also recorded: strongly immunogenic
Concentration of peptide that induces 20% of HLA-A2 expression (HLA-A*0201): 0.38 µM

Substance: AMNSLSLYI [MS4A1-B4]
killing of T2 cells loaded with the bacteria peptide by peptide-specific human T cell clones [3]: capacity to kill
killing of T2 cells loaded with the human TNFR13C (BAFF-R) or MS4A1 (CD20) peptide by peptide-specific human T cell clones [3]: able to kill
peptide-specific CD8 T cells detected with fluorescent multimer [4]: 19.7%
immunogenicity (ELISPOT-IFNγ), FIGS. 11-13 [1]: confirmed
cross-reactivity of the T cells for the corresponding human peptides [1]: shown
cross-reactivity: T cell reaction after challenge with the human corresponding peptide [2]: react strongly
immunogenicity (T cell response in ELISPOT-IFNγ after vaccination) [2]: significant T cell responses; also recorded: strongly immunogenic
Concentration of peptide that induces 20% of HLA-A2 expression (HLA-A*0201): 12.3 µM

Substance: GMAFVPLLL [CD37-B11]
Concentration of peptide that induces 20% of HLA-A2 expression (HLA-A*0201): 2.30 µM

Substance: LQMGGFYLL [CD19-B7]
Concentration of peptide that induces 20% of HLA-A2 expression (HLA-A*0201): 49.63 µM

Substance: YVFEHPELL [CD22-B11]
Concentration of peptide that induces 20% of HLA-A2 expression (HLA-A*0201): 0.2 µM

Substance: YLAYLIFEL [CD19-B6]
Concentration of peptide that induces 20% of HLA-A2 expression (HLA-A*0201): 3.76 µM

Substance: LLVGILHLV [CD19-B1]
cross-reactivity of the T cells for the corresponding human peptides [1]: shown
cross-reactivity: T cell reaction after challenge with the human corresponding peptide [2]: react strongly
immunogenicity (T cell response in ELISPOT-IFNγ after vaccination) [2]: significant T cell responses; also recorded: strongly immunogenic
Concentration of peptide that induces 20% of HLA-A2 expression (HLA-A*0201): 3.7 µM

Substance: SLVGILHII [CD19-B11]
Concentration of peptide that induces 20% of HLA-A2 expression (HLA-A*0201): 5.97 µM

Substance: LMFGAPALV [TNFRSF13C-B1]
killing of T2 cells loaded with the bacteria peptide by peptide-specific human T cell clones [3]: capacity to kill
killing of T2 cells loaded with the human TNFR13C (BAFF-R) or MS4A1 (CD20) peptide by peptide-specific human T cell clones [3]: able to kill
peptide-specific CD8 T cells detected with fluorescent multimer [4]: 13%
immunogenicity (ELISPOT-IFNγ), FIGS. 11-13 [1]: confirmed
cross-reactivity of the T cells for the corresponding human peptides [1]: shown
cross-reactivity: T cell reaction after challenge with the human corresponding peptide [2]: react strongly
immunogenicity (T cell response in ELISPOT-IFNγ after vaccination) [2]: significant T cell responses; also recorded: strongly immunogenic
Concentration of peptide that induces 20% of HLA-A2 expression (HLA-A*0201): 4.35 µM

Substance: WVFEHPETL (listed as Homo sapiens) [CD22-H1, reference compound]
Concentration of peptide that induces 20% of HLA-A2 expression (HLA-A*0201): 1.97 µM

Results, then the substance that gave them:

mean relative fluorescence intensity of T2 cells (HLA-A*0201; peptide 0.1 (μM)): 0
mean relative fluorescence intensity of T2 cells (HLA-A*0201; peptide 1 (μM)): 1.8
mean relative fluorescence intensity of T2 cells (HLA-A*0201; peptide 10 (μM)): 6.5
Substance: SLFLGILSV (listed as Homo sapiens) [MS4A1-H5, reference compound]

Concentration of peptide that induces 20% of HLA-A2 expression (HLA-A*0201): 11.76 µM
Substance: LLFGAPALL (listed as Homo sapiens) [TNFRSF13C-H1, reference compound]

Concentration of peptide that induces 20% of HLA-A2 expression (HLA-A*0201): 1.60 µM
Substance: ILPGLLFGL [TNFRSF13C-B31]

Concentration of peptide that induces 20% of HLA-A2 expression (HLA-A*0201): 6.77 µM
Substance: YLFLGILSL [MS4A1-B5]

Concentration of peptide that induces 20% of HLA-A2 expression (HLA-A*0201): 4.83 µM
Substance: LMIPAGIYA (listed as Homo sapiens) [MS4A1-H3, reference compound]

Concentration of peptide that induces 20% of HLA-A2 expression (HLA-A*0201): 0.70 µM
Substance: ILIPAGIYL [MS4A1-B3]

Concentration of peptide that induces 20% of HLA-A2 expression (HLA-A*0201): 2.45 µM
Substance: MS4A1-B41 (ILNSLSLLL)

Concentration of peptide that induces 20% of HLA-A2 expression (HLA-A*0201): 31.20 µM
Substance: YILGGLLMV [MS4A1-B12]

Concentration of peptide that induces 20% of HLA-A2 expression (HLA-A*0201): 7.35 µM
Substance: GLAFVPLQI (listed as Homo sapiens) [CD37-H1, reference compound]

Concentration of peptide that induces 20% of HLA-A2 expression (HLA-A*0201): 13.20 µM
Substance: FMPGLLFGA [TNFRSF13C-B33]

Concentration of peptide that induces 20% of HLA-A2 expression (HLA-A*0201): >100 µM
Substance: IMNSLSLFA (listed as Homo sapiens) [MS4A1-H4, reference compound]
